Measured values from the supplement of paper PMC10567573.

B1: ZNF649 (parent)
chain: EHERAHRGEKPHGCSLCGKAFYKR
B2: STX5 (parent)
chain: RSEFTLMAKRIGKDLSNTFAKLEK

Variants of: B1
Experiment: protein stability index of a GFP-peptide fusion (GPS, HEK-293T) (PSI 1-6); higher = more stable
Conditions: c terminus: a fixed tail appended
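Further: lentivirally expressed fusions sorted by FACS into six bins by GFP to DsRed ratio, PSI derived from sequencing read proportions per bin multiplied by bin number.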

Protein stability index, by site and new letter:
G18: C 1.59, E 2.77, A 1.43, H 2.15, D 2.45
C17: D 4.19, K 4.13, Q 4.46, I 3.81, H 3.67, Y 2.48, M 3.87, R 4.43, E 2.58, V 3.18, T 4.48, W 3, L 3.64, G 4.07, F 3.48, P 3.85, N 4.44, S 3.35
P11: N 2.33, V 1.79, T 2.54, G 1.55, A 2.08, Y 2.01, C 2.51, M 2.31, W 1.9, H 2.41, R 1.45, E 3.19
H12: A 2.74, I 4.08, R 1.66, G 1.89, C 1.46, E 2, P 1.7, K 2.49, N 1.47, S 1.32, Q 2.18, F 3.39, M 3.47, W 1.64
E3: D 2.01, Y 1.95, G 1.81, T 1.89, L 1.92, C 2.74, F 2.67, N 2.47, H 2.72, V 3.49, I 1.78, A 1.5, R 1.96, M 1.61
R7: W 2.02, G 1.61, L 1.48, K 2.34, H 2.31, Y 1.82, C 1.65, I 1.69, N 3.32, F 1.32, M 2.72, E 1.95, S 2.23, P 2.63, D 1.98, Q 2.02
H6: N 2.06, F 2.04, G 1.21, K 1.04, M 2.27, Q 1.31, D 2.01, W 1.78, V 1.58, E 1.06, I 1.54, L 1.61, Y 1.61
E1: Q 2.07, I 1.49, T 3.46, R 1.7, Y 2.38, N 1.69, A 2.16, H 1.86, W 1.85, P 2.15, V 2.77, K 3.37, M 1.88, D 2.2
H2: M 2.06, S 1.75, I 2, N 1.93, Y 1.65, T 3.15, Q 3.21, W 1.03, V 1.07, G 1.02, L 1.6, C 2.01, P 1.98, D 2, F 2.8
K10: R 1.01, M 2.28, V 1.76, T 3.02, D 2.27, S 1.66, E 2.87, F 2.98, Q 3.07, W 1.67, Y 1.7, I 1.69, N 1.19, A 2.12
S15: W 1.72, K 3.12, Y 2.48, D 3.14, N 2.39, H 5.95, M 1.93, L 2.27, R 2.23, I 2.01, A 1.84, E 2.21, P 4.16, Q 1.41, G 1.56, V 1.67
R4: M 2.08, C 3.31, N 2.23, T 1.95, Y 1.5, I 1.91, P 2.6, V 2.93, E 2.14, H 2.05, A 1.97, W 1.88, G 2.55, Q 1.59
E9: I 1.86, Y 2.19, W 1.59, M 2.08, A 2.28, T 1.81, N 1.85, C 3.6, H 2.13, R 3.66, V 1.42, F 2.21, S 1.72, L 2.16
G13: C 1.9, N 2.89, L 2.2, M 3.08, V 2.03, Y 3.31, A 2.43, T 2.42, E 2.48, I 3.07, S 1.95, P 1.88, F 2.72
L16: R 2.18, G 3.96, E 3.8, Q 3.02, I 2.2, S 1.97, F 1.83, K 2.79, N 2.07, Y 2.14, T 2.16, D 3.82, V 3.34, C 3.54, P 3.48, A 3.17, M 1.74
C14: N 4.12, D 4.54, A 4.66, P 3.12, F 2.69, H 4.25, R 3.73, T 3.91, G 4.18, I 4.24, Y 3.56, S 4.83, V 4.78, L 3.94, K 4.59
A5: S 1.09, W 1.62, E 1.83, R 2.76, H 2.23, I 1.34, K 1.74, V 1.62, Y 2.58, N 2.18, L 2.24, C 2.8, D 1.88, G 1.52, Q 2.42, F 2.8, T 3.23
G8: D 1.93, N 2.12, P 2.78, I 2.01, Q 3.17, W 2.21, M 1.8, E 2.27, K 2.27, Y 3.18, H 2.83, S 1.99, T 1.91, F 2.22

Variants of: B2
Experiment: as above
Conditions: c terminus: a fixed tail appended

Protein stability index of substitutions, site by site:
E3: M 2.25, Y 2.51, P 4.75, T 3.43, L 4.31
K13: C 2.46
L15: R 2.97, G 3.75, Q 3.1, W 2.05, N 3.79
T18: M 2.63, A 2.31
A8: D 3.02, E 2.87, G 2.49, C 2.49, Y 1.85, W 2.44
E23: S 2.18, K 5.04
K21: Y 1.45, L 2.47
M7: A 1.64, G 2.73, N 3.04, P 3.36, W 3.31, C 1.01
F4: S 3.69, H 3.31, E 4.58
R10: W 2.02, M 1.99
L22: F 2.67, Y 1.5, P 3.06, R 2.57, A 2.29, V 1.9
A20: N 1.84, V 2.24
S16: Y 3.19, M 1.72, D 2.45, E 1.41
L6: D 1.4, P 2.85
N17: I 3.01, C 2.02, G 3, T 2.75, E 3.15
T5: Q 1.02, L 2.46, E 1.35, D 2.25, C 1.8
S2: C 3.2, D 1.66, A 1.36
F19: A 2.79, Q 3.44, G 3.57, P 3.94
R1: L 3.25, Q 1.49
D14: Y 2.65, Q 4.98
K24: S 1.63, G 4.41
G12: V 1.54, Q 1.69
K9: Q 2.54, R 2.04, A 1.66, S 2.87, D 2.83, E 2.56
